Reference: patent publication US20240261333A1 (published 2024)

T1: NCCRP1 (UniProt Q6ZVX7 1-275)
T1 construct: also called NP_001001414.1
T1 sequence (looked up): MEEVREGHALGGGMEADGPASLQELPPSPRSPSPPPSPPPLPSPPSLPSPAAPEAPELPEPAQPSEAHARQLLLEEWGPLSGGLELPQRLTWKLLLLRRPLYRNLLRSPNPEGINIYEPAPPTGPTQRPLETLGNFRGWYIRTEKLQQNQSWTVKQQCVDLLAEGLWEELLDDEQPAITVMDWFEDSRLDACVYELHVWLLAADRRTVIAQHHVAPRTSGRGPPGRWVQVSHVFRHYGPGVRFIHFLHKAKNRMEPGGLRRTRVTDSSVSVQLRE

T2: PDIA4 (human, UniProt P13667 21-645)
T2 construct: also called XP_006716248.1
T2 sequence (looked up): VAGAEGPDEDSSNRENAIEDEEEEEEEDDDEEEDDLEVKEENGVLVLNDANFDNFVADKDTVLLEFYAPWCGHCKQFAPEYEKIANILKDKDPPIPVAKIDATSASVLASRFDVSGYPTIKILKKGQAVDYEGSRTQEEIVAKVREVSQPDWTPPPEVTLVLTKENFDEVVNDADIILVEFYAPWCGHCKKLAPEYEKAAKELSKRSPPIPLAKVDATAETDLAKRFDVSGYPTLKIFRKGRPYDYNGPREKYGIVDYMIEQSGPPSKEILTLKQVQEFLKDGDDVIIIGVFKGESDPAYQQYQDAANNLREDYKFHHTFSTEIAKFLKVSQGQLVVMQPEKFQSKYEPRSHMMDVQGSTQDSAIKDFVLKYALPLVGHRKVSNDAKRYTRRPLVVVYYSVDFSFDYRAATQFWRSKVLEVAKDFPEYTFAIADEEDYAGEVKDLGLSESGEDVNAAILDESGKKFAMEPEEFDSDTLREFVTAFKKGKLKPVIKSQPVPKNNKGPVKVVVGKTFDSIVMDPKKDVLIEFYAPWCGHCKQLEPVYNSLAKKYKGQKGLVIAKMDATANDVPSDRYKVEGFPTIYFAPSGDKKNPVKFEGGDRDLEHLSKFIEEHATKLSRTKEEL

T3: ERP44 (human, UniProt Q9BS26 30-406)
T3 construct: also called NP_055866.1
T3 sequence (looked up): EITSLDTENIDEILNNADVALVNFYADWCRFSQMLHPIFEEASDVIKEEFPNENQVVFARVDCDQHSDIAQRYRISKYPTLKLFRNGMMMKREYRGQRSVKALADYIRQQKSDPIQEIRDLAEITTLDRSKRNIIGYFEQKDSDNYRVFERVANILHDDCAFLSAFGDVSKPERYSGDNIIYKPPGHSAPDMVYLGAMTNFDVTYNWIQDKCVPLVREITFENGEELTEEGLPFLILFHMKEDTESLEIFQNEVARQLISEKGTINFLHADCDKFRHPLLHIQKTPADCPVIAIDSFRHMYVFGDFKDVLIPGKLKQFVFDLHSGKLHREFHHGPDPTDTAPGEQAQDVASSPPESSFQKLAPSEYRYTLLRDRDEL


Assays:
RPL37A = RPL37A (UniProt P61513 1-92); assay: co-IP, anti-FLAG, N-FLAG B3GNT2 cell lysate, mass spectrometry
Protocol: (§1) Cells were plated in 10-cm cell culture dishes and grown to 60-80% confluency. For each condition, two biological replicates were harvested for co-IP. Cells were washed with PBS and 4 mL of lysis buffer (20 mM HEPES, 1% Triton X-100, 150 mM NaCl, 1 mM EDTA, and 10% glycerol) containing protease inhibitor cocktail was added. Cells were scraped and lysate was incubated at 4° C. under rotary agitation for 1 h. Lysate was centrifuged at 14,000×g for 10 min at 4° C. Supernatant was transferred to a new tube and an aliquot was taken as the input. […] For Western blots, 10 μg/mL Chicken Anti-FLAG (Aves labs ET-DY100) and IgY control (R&D Systems AB-101-C) antibodies were biotinylated (Thermo Fisher Scientific 90407) and added to the respective conditions. Lysates with antibodies were incubated at 4° C. under rotary agitation overnight. For each mL of lysate, 50 μL of Pierce Protein A/G Magnetic Beads (Mass spectrometry; Thermo Fisher Scientific 88803) or Pierce Streptavidin Magnetic Beads (Western blot; Thermo Fisher Scientific 88817) was washed twice with lysis buffer. Lysates with antibodies were added to the beads and incubated at 4° C. under rotary agitation for 4 h. Beads were washed with lysis buffer 3 times and resuspended in lysis buffer for storage.
(§2) Magnetic beads were resuspended in 100 mM Tris pH 7.8, reduced, alkylated and digested with trypsin at 37° ° C. overnight. This solution was subjected to solid phase extraction to concentrate the peptides and remove unwanted reagents followed by injection onto a Shimadzu HPLC with fraction collector. Eight fractions were collected and after concentration were injected on a Waters NanoAcquity HPLC equipped with a self-packed Aeris 3 μm C18 analytical column 0.075 mm by 20 cm, (Phenomenex). Peptides were eluted using standard reverse-phase gradients. The effluent from the column was analyzed using a Thermo Orbitrap Elite mass spectrometer (nanospray configuration) operated in a data dependent manner for 54 minutes. The resulting fragmentation spectra were correlated against the known database using Proteome Discover 1.4 (Thermo Fisher Scientific).

LIMA1 = molecular target: T4, LIMA1 (UniProt Q9UHB6-4 1-760, limits assumed); assay: as above
T4 construct: also called NP_001107018.1 (+1)
T4 sequence (Q9UHB6 other isoform, or with tags, fused parts or gaps limits assumed): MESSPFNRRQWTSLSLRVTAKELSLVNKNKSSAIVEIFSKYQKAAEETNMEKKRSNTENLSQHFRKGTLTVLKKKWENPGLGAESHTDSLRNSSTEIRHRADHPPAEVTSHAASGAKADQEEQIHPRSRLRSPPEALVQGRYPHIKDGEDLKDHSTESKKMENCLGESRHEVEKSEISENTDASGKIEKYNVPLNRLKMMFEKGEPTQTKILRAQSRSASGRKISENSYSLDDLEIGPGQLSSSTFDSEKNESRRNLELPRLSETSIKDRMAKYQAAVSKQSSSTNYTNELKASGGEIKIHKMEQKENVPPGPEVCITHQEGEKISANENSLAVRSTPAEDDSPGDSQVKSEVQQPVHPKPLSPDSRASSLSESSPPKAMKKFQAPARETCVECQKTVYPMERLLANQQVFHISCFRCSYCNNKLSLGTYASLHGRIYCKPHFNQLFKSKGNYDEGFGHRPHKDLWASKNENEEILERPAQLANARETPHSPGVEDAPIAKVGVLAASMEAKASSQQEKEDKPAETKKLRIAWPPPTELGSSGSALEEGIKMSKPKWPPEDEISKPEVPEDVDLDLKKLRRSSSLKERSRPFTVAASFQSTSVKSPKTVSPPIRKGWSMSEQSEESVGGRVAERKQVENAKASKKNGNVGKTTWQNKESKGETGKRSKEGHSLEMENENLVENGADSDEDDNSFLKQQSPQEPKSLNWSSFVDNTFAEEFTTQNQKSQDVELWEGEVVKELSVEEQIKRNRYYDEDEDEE
Protocol: as §1, §2

CFL1 = molecular target: T5, CFL1 (UniProt P23528 2-166); assay: as above
T5 construct: also called NP_005498.1
T5 sequence (P23528 2-166 limits assumed): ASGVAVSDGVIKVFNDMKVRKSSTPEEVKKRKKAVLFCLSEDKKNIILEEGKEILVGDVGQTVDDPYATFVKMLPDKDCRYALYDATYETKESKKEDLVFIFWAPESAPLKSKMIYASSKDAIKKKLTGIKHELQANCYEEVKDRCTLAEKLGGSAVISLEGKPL
Protocol: as §1, §2

RPS23 = RPS23 (UniProt P62266 2-143); assay: as above
Protocol: as §1, §2

EIF4G1 = molecular target: T6, EIF4G1 (UniProt Q04637-3 1-1559, limits assumed); assay: as above
T6 construct: also called NP_001278086.1
T6 sequence (Q04637 41-1599 limits assumed): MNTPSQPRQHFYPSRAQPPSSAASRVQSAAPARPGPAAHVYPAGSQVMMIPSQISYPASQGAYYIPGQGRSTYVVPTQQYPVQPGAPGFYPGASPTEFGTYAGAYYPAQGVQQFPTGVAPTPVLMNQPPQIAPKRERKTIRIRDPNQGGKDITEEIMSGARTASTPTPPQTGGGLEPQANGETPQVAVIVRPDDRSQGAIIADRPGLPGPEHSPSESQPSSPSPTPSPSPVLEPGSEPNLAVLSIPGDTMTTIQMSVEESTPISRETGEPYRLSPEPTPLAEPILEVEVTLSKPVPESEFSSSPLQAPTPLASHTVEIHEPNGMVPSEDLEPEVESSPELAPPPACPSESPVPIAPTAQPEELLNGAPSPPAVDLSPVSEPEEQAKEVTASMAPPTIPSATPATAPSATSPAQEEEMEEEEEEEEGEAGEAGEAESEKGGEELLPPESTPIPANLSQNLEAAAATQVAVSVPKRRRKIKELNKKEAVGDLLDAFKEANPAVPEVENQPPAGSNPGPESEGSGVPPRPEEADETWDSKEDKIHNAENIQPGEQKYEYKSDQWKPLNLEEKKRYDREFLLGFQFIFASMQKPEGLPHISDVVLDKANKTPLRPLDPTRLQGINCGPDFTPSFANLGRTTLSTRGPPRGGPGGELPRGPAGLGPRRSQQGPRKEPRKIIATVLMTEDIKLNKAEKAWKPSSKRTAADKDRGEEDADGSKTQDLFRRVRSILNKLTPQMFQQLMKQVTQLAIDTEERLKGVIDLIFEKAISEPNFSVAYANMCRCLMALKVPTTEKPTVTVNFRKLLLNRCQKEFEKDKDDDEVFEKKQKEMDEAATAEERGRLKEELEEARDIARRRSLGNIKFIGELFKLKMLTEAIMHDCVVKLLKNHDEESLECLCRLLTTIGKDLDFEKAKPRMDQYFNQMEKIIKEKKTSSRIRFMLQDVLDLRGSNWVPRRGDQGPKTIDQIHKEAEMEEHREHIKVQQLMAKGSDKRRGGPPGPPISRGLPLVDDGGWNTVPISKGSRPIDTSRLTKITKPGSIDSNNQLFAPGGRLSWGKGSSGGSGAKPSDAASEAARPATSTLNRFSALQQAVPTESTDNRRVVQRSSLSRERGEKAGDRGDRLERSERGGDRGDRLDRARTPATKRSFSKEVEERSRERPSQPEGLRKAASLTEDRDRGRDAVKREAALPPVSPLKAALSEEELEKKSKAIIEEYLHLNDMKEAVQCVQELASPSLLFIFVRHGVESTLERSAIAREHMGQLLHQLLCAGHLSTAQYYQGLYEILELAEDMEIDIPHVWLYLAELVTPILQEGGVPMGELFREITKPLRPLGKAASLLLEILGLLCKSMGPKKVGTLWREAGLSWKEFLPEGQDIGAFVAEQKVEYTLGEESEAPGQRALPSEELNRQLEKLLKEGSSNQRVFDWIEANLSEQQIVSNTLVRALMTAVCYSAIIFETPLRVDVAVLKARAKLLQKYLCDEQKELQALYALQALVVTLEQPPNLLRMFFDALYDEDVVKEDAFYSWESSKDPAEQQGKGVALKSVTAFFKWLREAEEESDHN
Protocol: as §1, §2

RPS18 = RPS18 (UniProt P62269 2-152); assay: as above
Protocol: as §1, §2

TNKS1BP1 = molecular target: T7, TNKS1BP1 (UniProt Q9C0C2 1-1729); assay: as above
T7 construct: also called NP_203754.2
T7 sequence (Q9C0C2 whole entry): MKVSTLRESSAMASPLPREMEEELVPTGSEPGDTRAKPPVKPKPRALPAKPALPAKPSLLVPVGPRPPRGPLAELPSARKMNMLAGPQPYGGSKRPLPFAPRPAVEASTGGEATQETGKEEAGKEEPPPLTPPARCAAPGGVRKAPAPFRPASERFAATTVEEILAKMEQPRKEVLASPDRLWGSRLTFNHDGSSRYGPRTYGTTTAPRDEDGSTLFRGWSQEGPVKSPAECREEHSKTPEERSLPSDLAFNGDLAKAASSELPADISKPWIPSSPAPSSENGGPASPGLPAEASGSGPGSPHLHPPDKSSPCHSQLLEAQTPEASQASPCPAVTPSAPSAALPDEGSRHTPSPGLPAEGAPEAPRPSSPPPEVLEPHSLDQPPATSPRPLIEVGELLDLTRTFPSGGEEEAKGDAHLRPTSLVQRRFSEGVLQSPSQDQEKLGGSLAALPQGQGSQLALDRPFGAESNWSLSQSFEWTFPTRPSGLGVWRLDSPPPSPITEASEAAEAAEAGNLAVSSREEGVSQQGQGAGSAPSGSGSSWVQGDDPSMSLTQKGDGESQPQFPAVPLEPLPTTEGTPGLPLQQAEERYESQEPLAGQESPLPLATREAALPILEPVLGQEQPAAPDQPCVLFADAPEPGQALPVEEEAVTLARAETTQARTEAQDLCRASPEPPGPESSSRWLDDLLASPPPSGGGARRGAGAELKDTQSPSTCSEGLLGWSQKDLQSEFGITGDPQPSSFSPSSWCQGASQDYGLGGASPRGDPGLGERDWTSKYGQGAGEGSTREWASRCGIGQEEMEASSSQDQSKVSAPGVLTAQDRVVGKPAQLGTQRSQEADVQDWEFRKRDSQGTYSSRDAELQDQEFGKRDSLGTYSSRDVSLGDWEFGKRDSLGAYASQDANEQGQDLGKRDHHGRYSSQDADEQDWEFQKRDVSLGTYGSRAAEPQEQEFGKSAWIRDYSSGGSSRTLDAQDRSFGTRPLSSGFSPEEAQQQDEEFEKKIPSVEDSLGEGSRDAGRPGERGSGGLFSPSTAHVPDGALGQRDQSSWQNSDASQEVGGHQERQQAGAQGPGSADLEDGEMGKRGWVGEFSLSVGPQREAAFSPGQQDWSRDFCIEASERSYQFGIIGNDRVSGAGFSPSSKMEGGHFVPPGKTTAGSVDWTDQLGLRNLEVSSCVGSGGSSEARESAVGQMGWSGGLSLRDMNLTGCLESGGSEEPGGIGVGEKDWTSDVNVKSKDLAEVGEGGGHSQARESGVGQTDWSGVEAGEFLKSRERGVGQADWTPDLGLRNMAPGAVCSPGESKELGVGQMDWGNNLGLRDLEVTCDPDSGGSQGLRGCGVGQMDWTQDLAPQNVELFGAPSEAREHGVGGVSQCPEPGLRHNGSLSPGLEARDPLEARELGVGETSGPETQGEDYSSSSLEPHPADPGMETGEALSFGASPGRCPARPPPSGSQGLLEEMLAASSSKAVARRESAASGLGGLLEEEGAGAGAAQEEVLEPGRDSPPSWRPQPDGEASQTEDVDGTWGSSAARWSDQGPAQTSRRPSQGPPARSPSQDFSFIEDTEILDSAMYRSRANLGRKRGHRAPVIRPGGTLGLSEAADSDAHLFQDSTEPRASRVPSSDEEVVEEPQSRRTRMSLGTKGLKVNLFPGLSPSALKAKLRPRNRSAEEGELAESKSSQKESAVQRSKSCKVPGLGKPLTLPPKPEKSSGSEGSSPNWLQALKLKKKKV
Protocol: as §1, §2

NCCRP1 = molecular target: T1, NCCRP1; assay: as above
Protocol: as §1, §2

PDIA4 = molecular target: T2, PDIA4; assay: anti-FLAG co-IP from lysate of N-FLAG B3GNT2 cells, mass spectrometry
Protocol: as §1, §2

ERP44 = molecular target: T3, ERP44; assay: as above
Protocol: as §1, §2

| co-IP mass spectrometry count (RPL37A) | co-IP mass spectrometry count (LIMA1) | co-IP mass spectrometry count (CFL1) | co-IP mass spectrometry count (RPS23) | co-IP mass spectrometry count (EIF4G1) | co-IP mass spectrometry count (RPS18) | co-IP mass spectrometry count (TNKS1BP1) | co-IP mass spectrometry count (NCCRP1) | co-IP mass spectrometry count (PDIA4) | co-IP mass spectrometry count (ERP44) | Binder |
| --- | --- | --- | --- | --- | --- | --- | --- | --- | --- | --- |
| 6 | 4 | 5 | 9 | 2 | 15 | 2 | 4 |  |  | N-terminal FLAG tagged B3GNT2 (enzyme, human, UniProt Q9NY97 1-397, looked up, Bait of the co-IP; pulled down with mouse anti-FLAG from cell lysate; also called N-FLAG B3GNT2; N-term FLAG; not shown: FLAG tag at the N-terminus) MSVGRRRIKLLGILMMANVFIYFIMEVSKSSSQEKNGKGEVIIPKEKFWKISTPPEAYWNREQEKLNRQYNPILSMLTNQTGEAGRLSNISHLNYCEPDLRVTSVVTGFNNLPDRFKDFLLYLRCRNYSLLIDQPDKCAKKPFLLLAIKSLTPHFARRQAIRESWGQESNAGNQTVVRVFLLGQTPPEDNHPDLSDMLKFESEKHQDILMWNYRDTFFNLSLKEVLFLRWVSTSCPDTEFVFKGDDDVFVNTHHILNYLNSLSKTKAKDLFIGDVIHNAGPHRDKKLKYYIPEVVYSGLYPPYAGGGGFLYSGHLALRLYHITDQVHLYPIDDVYTGMCLQKLGLVPEKHKGFRTFDIEEKNKNNICSYVDLMLVHSRKPQEMIDIWSQLQSAHLKC |
|  |  |  |  |  |  |  |  | 0 | 0 | N-terminal FLAG tagged B3GNT2 (enzyme, human, UniProt Q9NY97 1-397, looked up, Bait of the co-IP; pulled down from cell lysate with mouse anti-FLAG antibody; also called N-FLAG B3GNT2; N-term FLAG; not shown: N-terminal FLAG tag) MSVGRRRIKLLGILMMANVFIYFIMEVSKSSSQEKNGKGEVIIPKEKFWKISTPPEAYWNREQEKLNRQYNPILSMLTNQTGEAGRLSNISHLNYCEPDLRVTSVVTGFNNLPDRFKDFLLYLRCRNYSLLIDQPDKCAKKPFLLLAIKSLTPHFARRQAIRESWGQESNAGNQTVVRVFLLGQTPPEDNHPDLSDMLKFESEKHQDILMWNYRDTFFNLSLKEVLFLRWVSTSCPDTEFVFKGDDDVFVNTHHILNYLNSLSKTKAKDLFIGDVIHNAGPHRDKKLKYYIPEVVYSGLYPPYAGGGGFLYSGHLALRLYHITDQVHLYPIDDVYTGMCLQKLGLVPEKHKGFRTFDIEEKNKNNICSYVDLMLVHSRKPQEMIDIWSQLQSAHLKC |
